Laboratory results published in IntAct's records for PubMed 10722738.

B1: Early protein (Human adenovirus A serotype 12 (HAdV-12)), P03259-2 (parent)
chain: MRTEMTPLVLSYQEADDILEHLVDNFFNEVPSDDDLYVPSLYELYDLDVESAGEDNNEQAVNEFFPESLILAASEGLFLPEPPVLSPVCEPIGGECMPQLHPEDMDLLCYEMGFPCSDSEDEQDENGMAHVSASAAAAAADREREEFQLDHPELPGHNCPVSDNEPEPNSTLDGDERPSPPKLGSAVPEGVIKPVPQRVTGRRRCAVESILDLIQEEEREQTVPVDLSVKRPRCN

Variants of: B1
Settings: with cbp_human CREBBP
With D16A the “effect of a mutation on the interaction” value was “disrupting interaction”.
For I18P, the “effect of a mutation on the interaction” value was “decreasing interaction”.
For L19S, the “effect of a mutation on the interaction” value was “decreasing interaction”.
